Data taken from article PMC8639829.

How the values were obtained:
[1] = target: T1, LASV L protein (WT) (Lassa virus Bantou 289, UniProt A0A3S8NV63 1-2217); assay: cryo-EM; PRE-[…]ON, 3.34 A; conditions: protein: recombinant; tags: internal StrepII after residue 407, or C-terminal StrepII-His
[2] = target: T1, LASV L protein (WT); assay: EMSA; conditions: protein: recombinant; tags: internal StrepII after residue 407, or C-terminal StrepII-His; label: 5' Cyanine3; single strand

B1: full promoter: 5' vRNA 0-19 / 3' vRNA 1-19 (structured_RNA)
RNA 1: GCGCACCGGGGAUCCUAGGC
RNA 2: GCCUAGGAUCCACUGUGCG
- binding result [1]: binds

B2: 3' vRNA 1-10 nt (ssRNA)
RNA: CCACUGUGCG
- binding result [2]: binds
